From paper PMC3817407

T1: ECF02_915
T1 chain: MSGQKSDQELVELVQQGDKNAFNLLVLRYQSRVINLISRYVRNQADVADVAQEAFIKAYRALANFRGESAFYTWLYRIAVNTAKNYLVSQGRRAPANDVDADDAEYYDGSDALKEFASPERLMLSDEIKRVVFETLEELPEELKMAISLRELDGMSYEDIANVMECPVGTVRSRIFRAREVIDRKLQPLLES

T2: ECF11_987
T2 chain: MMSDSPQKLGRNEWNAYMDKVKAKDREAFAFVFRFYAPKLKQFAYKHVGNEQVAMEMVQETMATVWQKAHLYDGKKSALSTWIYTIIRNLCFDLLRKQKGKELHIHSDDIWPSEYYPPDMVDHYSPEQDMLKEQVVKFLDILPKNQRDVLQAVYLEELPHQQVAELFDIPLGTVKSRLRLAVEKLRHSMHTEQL

T3: ECF12_807
T3 chain: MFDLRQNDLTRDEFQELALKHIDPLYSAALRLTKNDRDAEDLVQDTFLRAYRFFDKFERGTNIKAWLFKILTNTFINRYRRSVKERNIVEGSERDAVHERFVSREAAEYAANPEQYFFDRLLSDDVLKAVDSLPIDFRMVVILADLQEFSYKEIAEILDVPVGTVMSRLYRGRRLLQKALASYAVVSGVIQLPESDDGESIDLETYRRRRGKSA

T4: ECF14_1324
T4 chain: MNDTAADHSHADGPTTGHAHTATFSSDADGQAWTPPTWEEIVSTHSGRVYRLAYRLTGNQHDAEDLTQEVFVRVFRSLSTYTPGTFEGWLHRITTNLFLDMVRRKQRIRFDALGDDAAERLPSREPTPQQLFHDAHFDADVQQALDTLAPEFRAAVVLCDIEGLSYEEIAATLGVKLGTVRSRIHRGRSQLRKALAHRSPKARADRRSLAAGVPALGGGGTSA

T5: ECF15_436
T5 chain: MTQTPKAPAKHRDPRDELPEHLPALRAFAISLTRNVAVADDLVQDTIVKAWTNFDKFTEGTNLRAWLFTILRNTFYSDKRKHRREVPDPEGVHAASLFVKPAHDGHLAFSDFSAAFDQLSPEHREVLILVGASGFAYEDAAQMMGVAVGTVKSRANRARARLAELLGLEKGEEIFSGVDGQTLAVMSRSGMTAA

T6: ECF33_423
T6 chain: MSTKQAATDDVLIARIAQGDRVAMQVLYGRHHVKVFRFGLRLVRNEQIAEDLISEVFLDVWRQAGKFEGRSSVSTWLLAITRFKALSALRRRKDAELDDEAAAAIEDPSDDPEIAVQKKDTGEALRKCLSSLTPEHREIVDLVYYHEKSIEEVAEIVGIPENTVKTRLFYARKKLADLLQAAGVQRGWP


Assays:
[1] = molecular target: T1, ECF02_915
[2] = molecular target: T2, ECF11_987
[3] = molecular target: T3, ECF12_807
[4] = molecular target: T4, ECF14_1324
[5] = molecular target: T5, ECF15_436
[6] = molecular target: T6, ECF33_423

Binder | fold repression [1] | fold repression [2] | fold repression [3] | fold repression [4] | fold repression [5] | fold repression [6]
AS01_3473 (protein) MSNYDNAELLALWLEGKLTPKQRDEFEQRCIQDSQFAEQVDAAAMVKIGADDYSSSEVPQWNKAATFEPQQANNSGSWLSGVSLVTSALAIVLVLTGTQVTTSEGELRIRFGSGQSEQALVKLVDSKLDAFKQNQQDAFTLYAQTLQQQQSESASQLTNYLLSSSRKERREDFAELIKFVNQQRSDDQLFYARQLNQLQQDVYHDATGVALESIQQ | 2.34 | 1.52 | 3.57 | 2.61 | 1.94 | 1.1
AS04_1609 (protein) MNRTTEQRNAEVMKTIGLLDQMPRVEVDHLFRVRLMQRIEAMEVKKTSWSALPGGAFNPRLAFMALLLMLNIASALMLFMHGTPQATGSSGAIAESLTEDYGGPALSYYDDQTTIDR | 2.99 | 6.21 | 5.09 | 8.02 | 5.75 | 3.53
AS11_987 (protein) MNKHPDNNLLEAYASGSIDAVSGLVVATHLETCSKCRAYVNQVEASQANTVSESPSEYSPEFDDMLNDIINAEPVNDNVVIQDTAFVNVAGKSFELPKTLVRFSDLVGSWRSYGGKVFSAQIDLGEDARVSLMYIGENVQIPQHTHRGLESTLVLHGGFSDEDGQYEEGDLMVRDASVKHSPFTQEGEDCLCLTVLTEPMIFTQGVARIFNLFGKGLYP | 3.1 | 77.4 | 4.25 | 3.15 | 3.32 | 2.38
AS14_1324 (protein) MSGSRPEPEGHLAEQHLGDRLSALVDGELGHDARERVLAHVATCPKCKAEVDAQRRLKNVFAEAAPPAPSESFLARLQGLPGGGDSDGGGSPFSGLPGGFGASAASGVFGPRRDERFEFDYVPAGSHTPVLPSATSGRGFRIHEVGRHESDRSASRGLRFAFAAAGAVSLAAIALGGVTLGTPDTTTEARGSGSGSNVTPLRTPGSAAATGSESQRRRTAGPLLGQGQRALGDLPVASTTASAPLLPGMPAPAGGDARQQAVRALTTPVTAGAAAMSPLIRPLEAVPPLSLSSWSAAPEVRPPGLLAAPDPAPSPYPAASPAASSSPLR | 2.86 | 6.84 | 8.92 | 47.4 | 6.5 | 4.28
AS03_1198 (protein) MDKDFDFDNIGKRTPYRTPDNFFEETQRKILERTVDEQRKKRRLKRIIPTVIAVAAVLAGILFTPSLRYMNTDTPSASNILAVDKNNVTTDPVDKWIKELSDEELEELVSFSENDIFLN | 2.43 | 1.61 | 1.43 | 0.798 | 1.11 | 0.857
AS03_1244 (protein) MKQFDPDVNIRPKEDSIRHYSVPDDYFASFTDKLMAQIPAVKEENTVVVPSVALWPKLRPLLYLAASFLLMIGMFKAFSLFGVGSDTGRTTSTSAGLVALDHGDTRWSEDTDYRDFLHDNCAETVSDEWVLTDFSE | 2 | 2.14 | 3.08 | 2.35 | 2.04 | 1.65
AS15_524 (protein) MNFGVEDMIEHVPMEDKRKGAAALDEARLRQQAIGVKLRQMFDEVVNEPVPDEFLAILRKAERPAGGE | 2.67 | 3.74 | 5.51 | 10.5 | 16.7 | 6.68
AS15_436 (protein) MAQSTEPKASPQEATAKGGDNTKGKSRKELQQQIDENLRRVYEEALVQEVPDRFAMLLDQLRQKGTGK | 1.55 | 2.8 | 5.3 | 9 | 46.1 | 3.04
